Reference: the supplement of paper PMC10567573

B1: MTMR15 (parent)
chain: FSPDFTLRNTLKSTSEDSLVKQEC

Variants of: B1
Experiment: protein stability index of a GFP-peptide fusion (GPS, HEK-293T) (PSI 1-6); higher = more stable
Conditions: c terminus: a fixed tail appended
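Further: lentivirally expressed fusions sorted by FACS into six bins by GFP to DsRed ratio, PSI derived from sequencing read proportions per bin multiplied by bin number.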

Protein stability index, by site and new letter:
C24: G 2.39; Y 3.07; M 2.74; E 1.69; F 2.63; S 1.85; I 1.67; L 2.03
K21: T 2.1; Y 2.62; E 2.52; Q 2.33; S 1.9; V 2
T14: E 2.64; H 1.96; R 1.77; N 2.11
E23: C 2.49; N 1.58; A 2.87; I 1.72; Y 1.84; R 2.42
Q22: G 2.31; Y 2.39; N 2.02; K 1.62; A 1.56
D17: S 1.45; H 2.34; N 1.8; R 1.61; E 2.12; L 2.36; I 2.58; F 2.8
S13: D 2.02; E 2.11; H 2.42; T 1.53; I 2.56; Y 2.35; F 2.13; P 2.12; C 2.08
F1: R 4.98; V 4.83; I 4.71; M 4.87; Q 4.96; A 3.9; P 5.1
P3: A 1.97; C 2.64; Y 2.76; N 3.08; L 2.24; S 2.67; I 2.44; F 2.83
L7: E 2.99; C 2.25; H 2.15; G 2.48; S 2.08
N9: C 2.35; S 2.34; Q 1.96; K 2.11
K12: C 2.34; R 1.71; Y 2.38; D 2.27
E16: A 1.67; F 2.48; I 1.91; T 1.57; S 2.1; W 2.38; H 2.25
L19: G 2; T 2.56; F 2.14; N 2.2; D 2.37; V 1.66
T10: A 2.16; K 1.72; V 1.76; L 2.61; P 1.7; E 2.37; Y 2.27
T6: K 2.01; C 2.73; N 1.77; V 1.82; I 3.13; A 1.72; G 2.63; Y 2.46; E 3.39; P 1.92; L 2.8
S2: K 4.27; N 3.68; W 3.6; E 4.8; T 2.23; P 2.9; I 1.92; A 2.08; L 3.19; R 4.02
S18: I 3.61; D 1.76; F 1.87; E 2.02; A 1.75; Y 2.41
F5: Y 2.61; P 3.59; K 3.79; R 3.26; D 4.35; Q 3.5; H 3.52; V 3.56; E 4.83; T 3.17; S 3.19
V20: L 2.08; Q 2.06; H 2.19; Y 2; C 1.74; M 2.29; D 2.08
R8: D 2.68; Y 2.44; P 2.67; K 1.7; C 2.75; F 1.89; N 1.58
L11: S 2.04; P 2.11; Y 1.75; Q 2.06; F 2.47; C 2.42; D 2.25; K 2
D4: L 1.94; T 2.07; P 4; W 1.96; I 2.05; A 2.44
S15: C 2.71; T 1.85; D 1.95; G 2.33; N 1.43; F 2.63; I 1.73
